Reference: US20250186594A1 (BRIGHT PEAK THERAPEUTICS, published 2025)
Numbering of substitutions follows the chain as printed. In names and notes the source's numbering stands. Blank lines part the entries; values can stand above or below the binder they belong to.

Legend:
[1] = target: T1, IL-18Rα/β heterodimer (Fc fused human IL-18Rα mixed with Fc fused human IL-18Rβ) (human, UniProt Q13478 19-329; O95256 20-356, limits assumed); test: SPR, Fc-IL-18Rα/β captured, heterogeneous ligand fit
T1 construct: Alpha and beta Fc fusions were mixed and pre-incubated for 30 min before capture on anti-human IgG; also called alpha/beta heterodimer IL-18 receptor; heterodimeric human IL-18 receptor alpha (CD218a) and IL-18R accessory protein (IL-18RAP/CDw218b); not shown: Fc
T1 sequence (looked up) 1: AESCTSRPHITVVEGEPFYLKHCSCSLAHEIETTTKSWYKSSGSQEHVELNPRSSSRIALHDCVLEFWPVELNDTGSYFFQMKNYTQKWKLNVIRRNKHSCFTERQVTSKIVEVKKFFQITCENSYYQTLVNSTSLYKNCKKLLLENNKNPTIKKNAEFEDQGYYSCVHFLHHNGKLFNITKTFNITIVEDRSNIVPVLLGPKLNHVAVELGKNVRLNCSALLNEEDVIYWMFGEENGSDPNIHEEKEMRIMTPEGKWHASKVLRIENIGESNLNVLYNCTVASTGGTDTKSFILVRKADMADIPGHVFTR
T1 sequence (looked up) 2: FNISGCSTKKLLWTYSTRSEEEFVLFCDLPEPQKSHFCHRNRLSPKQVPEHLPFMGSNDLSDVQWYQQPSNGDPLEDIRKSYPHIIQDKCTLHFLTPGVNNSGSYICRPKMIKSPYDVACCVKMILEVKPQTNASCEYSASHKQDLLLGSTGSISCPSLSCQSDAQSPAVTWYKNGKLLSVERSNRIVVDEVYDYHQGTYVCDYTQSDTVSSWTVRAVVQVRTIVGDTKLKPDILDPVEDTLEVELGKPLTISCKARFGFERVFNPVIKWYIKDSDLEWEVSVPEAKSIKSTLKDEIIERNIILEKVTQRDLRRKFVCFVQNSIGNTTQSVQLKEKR
Description: (§1) The interaction of the wild type and of modified IL-18 polypeptides with human IL-18 receptor subunits are measured with Surface Plasmon Resonance (SPR) technology. Anti-human IgG antibodies are bound by amine coupling onto a CM5 chip to capture 6 µg/mL of Fc fused human IL-18Rα, […] of Fc fused human IL-18Rβ, or […] of Fc fused human IL-18BP isoform a (IL-18BPa) for 30 min before capture. In other settings, […] of alpha and beta IL-18 receptors are mixed and pre-incubated for 30 min before capture of the alpha/beta heterodimer IL-18 receptor.
(§2) The kinetic binding of the IL-18 analytes are measured with a Biacore 8K instrument in two fold serial dilutions starting at […] down to 0.98 nM. Regeneration of the surface back to amine coupled anti IgG antibody is done after every concentration of analyte. To measure the protein association to the receptors, the samples are injected with a flow rate of […] for 60 s, followed by 300 s buffer only to detect the dissociation. The used running buffer is 1×PBS with 0.05% Tween20. The relative response units (RU, Y-axis) are plotted against time (s, X-axis) and analyzed in a kinetic 1:1 binding model for the monomer receptor binding and for the binding to the IL-18BP. A kinetic heterogenous ligand fit model is applied for the alpha/beta heterodimer binding.

Fc fused human IL-18Rα = target: T2, Fc fused human IL-18Rα (human, UniProt Q13478 19-329, limits assumed); test: SPR, Fc-IL-18Rα captured, 1:1 fit
T2 construct: also called IL-18Rα monomer; human IL-18 receptor alpha (CD218a); not shown: Fc
T2 sequence (looked up): T1 sequence (looked up) 1
Description: as §1, §2

[2] = target: T3, IL-18 receptor (IL-18R) on HEK-Blue IL18R reporter cells (UniProt Q13478 19-541; O95256 20-599, limits assumed); test: cell-based or functional assay
T3 sequence (looked up) 1: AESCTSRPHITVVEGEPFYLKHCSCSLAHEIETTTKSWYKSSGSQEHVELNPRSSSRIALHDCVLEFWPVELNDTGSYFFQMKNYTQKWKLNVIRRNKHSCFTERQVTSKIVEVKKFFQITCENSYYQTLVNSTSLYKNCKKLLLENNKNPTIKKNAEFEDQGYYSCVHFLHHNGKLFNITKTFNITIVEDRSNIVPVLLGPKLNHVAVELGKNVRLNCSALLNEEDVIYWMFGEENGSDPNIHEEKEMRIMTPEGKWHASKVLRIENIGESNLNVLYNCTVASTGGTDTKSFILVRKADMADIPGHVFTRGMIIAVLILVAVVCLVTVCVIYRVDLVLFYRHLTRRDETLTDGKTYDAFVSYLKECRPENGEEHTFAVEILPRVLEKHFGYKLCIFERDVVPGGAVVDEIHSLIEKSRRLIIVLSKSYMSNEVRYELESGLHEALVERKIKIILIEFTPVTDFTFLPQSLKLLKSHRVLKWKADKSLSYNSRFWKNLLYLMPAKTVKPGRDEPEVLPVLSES
T3 sequence (looked up) 2: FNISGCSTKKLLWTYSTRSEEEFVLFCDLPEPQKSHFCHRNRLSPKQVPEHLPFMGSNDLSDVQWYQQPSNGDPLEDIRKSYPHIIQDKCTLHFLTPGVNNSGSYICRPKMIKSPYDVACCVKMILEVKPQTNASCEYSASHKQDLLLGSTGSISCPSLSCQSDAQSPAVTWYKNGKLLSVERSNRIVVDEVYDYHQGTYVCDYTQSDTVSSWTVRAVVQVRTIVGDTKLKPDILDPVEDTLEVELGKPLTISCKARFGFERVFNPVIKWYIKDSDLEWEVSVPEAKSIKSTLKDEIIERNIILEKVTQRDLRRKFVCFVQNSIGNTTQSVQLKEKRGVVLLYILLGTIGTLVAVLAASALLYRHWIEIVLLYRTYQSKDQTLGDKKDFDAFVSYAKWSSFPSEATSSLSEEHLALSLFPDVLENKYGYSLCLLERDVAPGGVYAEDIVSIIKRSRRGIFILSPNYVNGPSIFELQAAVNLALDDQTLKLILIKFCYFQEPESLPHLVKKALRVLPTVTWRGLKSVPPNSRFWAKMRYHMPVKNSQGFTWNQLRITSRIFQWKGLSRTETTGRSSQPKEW

B1: IL-18 variant SEQ ID NO: 30 with 10 kDa PEG (E6K, V11I, C38A, K53A, T63A, C76A, C127A, C68-10kPEG) (ligand)
chain: YFGKLKSKLSIIRNLNDQVLFIDQGNRPLFEDMTDSDARDNAPRTIFIISMYADSQPRGMAVAISVKCEKISTLSAENKIISFKEMNPPDNIKDTKSDIIFFQRSVPGHDNKMQFESSSYEGYFLAAEKERDLFKLILKKEDELGDRSIMFTVQNED
modifications: 10 kDa PEG on Cys 68 (C68-10kPEG)
notes: also called 30 + PEG10
- Kd [1]: 8.7 nM
- koff [1]: 0.00105 s⁻¹
- kon [1]: 120000 M⁻¹ s⁻¹
- Kd (Fc fused human IL-18Rα): 239 nM
- koff (Fc fused human IL-18Rα): 0.0779 s⁻¹
- kon (Fc fused human IL-18Rα): 326000 M⁻¹ s⁻¹

B2: IL-18 variant SEQ ID NO: 59 with 30 kDa PEG (E6K, C38A, K53A, C68-30kDPEG) (ligand)
chain: B1 chain with I11V, A63T, A76C, A127C
modifications: 30 kDa PEG on Cys 68 (C68-30kDPEG)
notes: also called 59 + PEG30; 59 + PEG
- Kd [1]: 8.02 nM
- koff [1]: 0.00058 s⁻¹
- kon [1]: 84500 M⁻¹ s⁻¹
- Kd (Fc fused human IL-18Rα): 352 nM
- koff (Fc fused human IL-18Rα): 0.0264 s⁻¹
- kon (Fc fused human IL-18Rα): 74600 M⁻¹ s⁻¹

B4: IL-18 variant SEQ ID NO: 57 (E6K, C38S, K53A) (ligand)
chain: B1 chain with I11V, A38S, A63T, A76C, A127C
- Kd [1]: 2.3 nM
- koff [1]: 0.000816 s⁻¹
- kon [1]: 535000 M⁻¹ s⁻¹
- Kd (Fc fused human IL-18Rα): 75 nM
- koff (Fc fused human IL-18Rα): 0.0133 s⁻¹
- kon (Fc fused human IL-18Rα): 95200 M⁻¹ s⁻¹
- EC50, HEK-Blue IL18R reporter [2]: 0.53 nM

B7: IL-18 variant SEQ ID NO: 30 with 30 kDa PEG (E6K, V11I, C38A, K53A, T63A, C76A, C127A, C68-30kPEG) (ligand)
chain: B1 chain
modifications: 30 kDa PEG on Cys 68 (C68-30kPEG)
notes: also called 30 + PEG30; 30 + PEG
- Kd [1]: 15.7 nM
- koff [1]: 0.000618 s⁻¹
- kon [1]: 39400 M⁻¹ s⁻¹
- Kd (Fc fused human IL-18Rα): 770 nM
- koff (Fc fused human IL-18Rα): 0.0842 s⁻¹
- kon (Fc fused human IL-18Rα): 125000 M⁻¹ s⁻¹
- EC50, HEK-Blue IL18R reporter [2]: 0.23 nM

B8: IL-18 variant SEQ ID NO: 57 with 30 kDa PEG (E6K, C38S, K53A, C68-30kDPEG) (ligand)
chain: B1 chain with I11V, A38S, A63T, A76C, A127C
modifications: 30 kDa PEG on Cys 68 (C68-30kDPEG)
notes: also called 57 + PEG30; 57 + PEG
- Kd [1]: 23 nM
- koff [1]: 0.000787 s⁻¹
- kon [1]: 33800 M⁻¹ s⁻¹
- Kd (Fc fused human IL-18Rα): 701 nM
- koff (Fc fused human IL-18Rα): 0.0267 s⁻¹
- kon (Fc fused human IL-18Rα): 37900 M⁻¹ s⁻¹

Next, values leading:

- Kd [1]: 0.41 nM
- koff [1]: 0.000467 s⁻¹
- kon [1]: 1.15e+06 M⁻¹ s⁻¹
- Kd (Fc fused human IL-18Rα): 42.2 nM
- koff (Fc fused human IL-18Rα): 0.976 s⁻¹
- kon (Fc fused human IL-18Rα): 2.31e+07 M⁻¹ s⁻¹
- EC50, HEK-Blue IL18R reporter [2]: 0.0139 nM
B3: IL-18 variant SEQ ID NO: 63 (E6K, C38A, K53A, C76A, C127A) (ligand)
chain: B1 chain with I11V, A63T

- Kd [1]: 1.01 nM
- koff [1]: 0.0011 s⁻¹
- kon [1]: 1.09e+06 M⁻¹ s⁻¹
- Kd (Fc fused human IL-18Rα): 30.4 nM
- koff (Fc fused human IL-18Rα): 0.0674 s⁻¹
- kon (Fc fused human IL-18Rα): 2.22e+06 M⁻¹ s⁻¹
- EC50, HEK-Blue IL18R reporter [2]: 0.084 nM
B5: IL-18 variant SEQ ID NO: 61 (E6K, C38A, K53A, C76A) (ligand)
chain: B1 chain with I11V, A63T, A127C

- Kd [1]: 1.24 nM
- koff [1]: 0.00149 s⁻¹
- kon [1]: 1.21e+06 M⁻¹ s⁻¹
- Kd (Fc fused human IL-18Rα): 63.9 nM
- koff (Fc fused human IL-18Rα): 0.0424 s⁻¹
- kon (Fc fused human IL-18Rα): 664000 M⁻¹ s⁻¹
- EC50, HEK-Blue IL18R reporter [2]: 0.17 nM
B6: IL-18 variant SEQ ID NO: 62 (E6K, C38A, K53A, C127A) (ligand)
chain: B1 chain with I11V, A63T, A76C

- Kd [1]: 15.5 nM
- koff [1]: 0.000589 s⁻¹
- kon [1]: 38100 M⁻¹ s⁻¹
- Kd (Fc fused human IL-18Rα): ~1000 nM
- koff (Fc fused human IL-18Rα): 0.0288 s⁻¹
- kon (Fc fused human IL-18Rα): 28700 M⁻¹ s⁻¹
B9: IL-18 variant SEQ ID NO: 61 with 30 kDa PEG (E6K, C38A, K53A, C76A, C68-30kPEG) (ligand)
chain: B1 chain with I11V, A63T, A127C
modifications: 30 kDa PEG on Cys 68 (C68-30kPEG)
notes: also called 61 + PEG
